T1: FcγRIIa R (human, UniProt P12318 34-217)
T1 construct: extracellular domain; Soluble extracellular domain with C-terminal His tag, expressed in FreeStyle293 cells; also called FcgRIIa R; FcγRIIa type R; not shown: His tag attached to the C terminus
T1 sequence (looked up): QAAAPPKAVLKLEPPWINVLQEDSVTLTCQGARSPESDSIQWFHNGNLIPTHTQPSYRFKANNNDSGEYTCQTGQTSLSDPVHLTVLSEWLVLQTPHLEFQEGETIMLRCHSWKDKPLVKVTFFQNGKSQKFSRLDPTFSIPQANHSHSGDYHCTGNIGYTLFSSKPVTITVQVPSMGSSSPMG


Biological target: T1, FcγRIIa R
Test: SPR (Biacore), antibody captured via antigen peptide, FcγRIIa R as analyte; homodimerized antibody
Description: Analysis of interaction between objective antibody and the FcγR was carried out using Biacore T100 (GE Healthcare). HBS-EP+ (GE Healthcare) was used as the running buffer, and the measurement temperature was set to 25° C. Chips produced by immobilizing the antigen peptide by the amine coupling method to a Series S Sencor Chip CM5 (GE Healthcare), or alternatively, chips produced by allowing preliminarily biotinylated antigen peptides to interact with and immobilize onto a Series S Sensor Chip SA (certified) (GE Healthcare) were used. Antibodies of interest were captured onto an antigen peptide-immobilized chip, and allowed to interact to each FcγR diluted with running buffer. To regenerate and repeatedly use the chip, the antibodies captured on the chip were washed off by reacting 10 mM glycine-HCl, pH 1.5.

| Binder | Ho/Con_2aR |
| --- | --- |
| GpH7-B3 variant H268_18N/GpL16-k0 (antibody, human IgG1, kappa, homodimerized; mutation in both H chains; also called Ho Ab) heavy: not shown light: DIVMTQSPLSLPVTPGEPASISCQASESLVHSNRNTYLHWYLQKPGQSPQLLIYKVSNRFSGVPDRFSGSGSGTDFTLKISRVEAEDVGVYYCSQNTHVPPTFGQGTKVEIERTVAAPSVFIFPPSDEQLKSGTASVVCLLNNFYPREAKVQWKVDNALQSGNSQESVTEQDSKDSTYSLSSTLTLSKADYEKHKVYACEVTHQGLSSPVTKSFNRGEC | 134 % of control (GpH7-B3/GpL16-k0 = 100) |
| GpH7-B3 variant I332_04F/GpL16-k0 (antibody, human IgG1, kappa, homodimerized; mutation in both H chains; also called Ho Ab) heavy: not shown light: DIVMTQSPLSLPVTPGEPASISCQASESLVHSNRNTYLHWYLQKPGQSPQLLIYKVSNRFSGVPDRFSGSGSGTDFTLKISRVEAEDVGVYYCSQNTHVPPTFGQGTKVEIERTVAAPSVFIFPPSDEQLKSGTASVVCLLNNFYPREAKVQWKVDNALQSGNSQESVTEQDSKDSTYSLSSTLTLSKADYEKHKVYACEVTHQGLSSPVTKSFNRGEC | 109 % of control (GpH7-B3/GpL16-k0 = 100) |
| GpH7-B3 variant I332_09D/GpL16-k0 (antibody, human IgG1, kappa, homodimerized; mutation in both H chains; also called Ho Ab) heavy: not shown light: DIVMTQSPLSLPVTPGEPASISCQASESLVHSNRNTYLHWYLQKPGQSPQLLIYKVSNRFSGVPDRFSGSGSGTDFTLKISRVEAEDVGVYYCSQNTHVPPTFGQGTKVEIERTVAAPSVFIFPPSDEQLKSGTASVVCLLNNFYPREAKVQWKVDNALQSGNSQESVTEQDSKDSTYSLSSTLTLSKADYEKHKVYACEVTHQGLSSPVTKSFNRGEC | 127 % of control (GpH7-B3/GpL16-k0 = 100) |
| GpH7-B3 variant I332_10E/GpL16-k0 (antibody, human IgG1, kappa, homodimerized; mutation in both H chains; also called Ho Ab; GpH7-B3-22-10E/GpL16-k0) heavy: not shown light: DIVMTQSPLSLPVTPGEPASISCQASESLVHSNRNTYLHWYLQKPGQSPQLLIYKVSNRFSGVPDRFSGSGSGTDFTLKISRVEAEDVGVYYCSQNTHVPPTFGQGTKVEIERTVAAPSVFIFPPSDEQLKSGTASVVCLLNNFYPREAKVQWKVDNALQSGNSQESVTEQDSKDSTYSLSSTLTLSKADYEKHKVYACEVTHQGLSSPVTKSFNRGEC | 123 % of control (GpH7-B3/GpL16-k0 = 100) |
| GpH7-B3 variant I332_15Y/GpL16-k0 (antibody, human IgG1, kappa, homodimerized; mutation in both H chains; also called Ho Ab) heavy: not shown light: DIVMTQSPLSLPVTPGEPASISCQASESLVHSNRNTYLHWYLQKPGQSPQLLIYKVSNRFSGVPDRFSGSGSGTDFTLKISRVEAEDVGVYYCSQNTHVPPTFGQGTKVEIERTVAAPSVFIFPPSDEQLKSGTASVVCLLNNFYPREAKVQWKVDNALQSGNSQESVTEQDSKDSTYSLSSTLTLSKADYEKHKVYACEVTHQGLSSPVTKSFNRGEC | 111 % of control (GpH7-B3/GpL16-k0 = 100) |
| GpH7-B3 variant K326_06M/GpL16-k0 (antibody, human IgG1, kappa, homodimerized; mutation in both H chains; also called Ho Ab) heavy: not shown light: DIVMTQSPLSLPVTPGEPASISCQASESLVHSNRNTYLHWYLQKPGQSPQLLIYKVSNRFSGVPDRFSGSGSGTDFTLKISRVEAEDVGVYYCSQNTHVPPTFGQGTKVEIERTVAAPSVFIFPPSDEQLKSGTASVVCLLNNFYPREAKVQWKVDNALQSGNSQESVTEQDSKDSTYSLSSTLTLSKADYEKHKVYACEVTHQGLSSPVTKSFNRGEC | 143 % of control (GpH7-B3/GpL16-k0 = 100) |

Further lines, results first:

| Ho/Con_2aR | Binder |
| --- | --- |
| 158 % of control (GpH7-B3/GpL16-k0 = 100) | GpH7-B3 variant K326_09D/GpL16-k0 (antibody, human IgG1, kappa, homodimerized; mutation in both H chains; also called Ho Ab) heavy: not shown light: DIVMTQSPLSLPVTPGEPASISCQASESLVHSNRNTYLHWYLQKPGQSPQLLIYKVSNRFSGVPDRFSGSGSGTDFTLKISRVEAEDVGVYYCSQNTHVPPTFGQGTKVEIERTVAAPSVFIFPPSDEQLKSGTASVVCLLNNFYPREAKVQWKVDNALQSGNSQESVTEQDSKDSTYSLSSTLTLSKADYEKHKVYACEVTHQGLSSPVTKSFNRGEC |
| 156 % of control (GpH7-B3/GpL16-k0 = 100) | GpH7-B3 variant K326_10E/GpL16-k0 (antibody, human IgG1, kappa, homodimerized; mutation in both H chains; also called Ho Ab) heavy: not shown light: DIVMTQSPLSLPVTPGEPASISCQASESLVHSNRNTYLHWYLQKPGQSPQLLIYKVSNRFSGVPDRFSGSGSGTDFTLKISRVEAEDVGVYYCSQNTHVPPTFGQGTKVEIERTVAAPSVFIFPPSDEQLKSGTASVVCLLNNFYPREAKVQWKVDNALQSGNSQESVTEQDSKDSTYSLSSTLTLSKADYEKHKVYACEVTHQGLSSPVTKSFNRGEC |
| 141 % of control (GpH7-B3/GpL16-k0 = 100) | GpH7-B3 variant K326_14T/GpL16-k0 (antibody, human IgG1, kappa, homodimerized; mutation in both H chains; also called Ho Ab) heavy: not shown light: DIVMTQSPLSLPVTPGEPASISCQASESLVHSNRNTYLHWYLQKPGQSPQLLIYKVSNRFSGVPDRFSGSGSGTDFTLKISRVEAEDVGVYYCSQNTHVPPTFGQGTKVEIERTVAAPSVFIFPPSDEQLKSGTASVVCLLNNFYPREAKVQWKVDNALQSGNSQESVTEQDSKDSTYSLSSTLTLSKADYEKHKVYACEVTHQGLSSPVTKSFNRGEC |
